PMC8682772, “Negative feedback for DARS2–Fis complex by ATP–DnaA supports the cell cycle-coordinated regulation for chromosome replication” (Nucleic Acids Research, 2021)
Where “and” joins values, the source holds several entries; their conditions need not be identical. Identical values can stand only once.

What was measured:
[1] = biological target: the molecule itself; assay: native gel or EMSA; DnaA preincubated with 3 uM ATP, then 30°C for 5 min in buffer G (20 mM HEPES–KOH pH 7.6, 80 mM KCl, 1 mM EDTA, 4 mM DTT, 5 mM magnesium acetate, 0.1 mg/ml BSA, 10% glycerol) with 35 nM 52-bp DARS2 FBS2–5 DNA and competitor λ-DNA; 7% polyacrylamide gel; oligomers counted as DnaA molecules on the DNA fragment (C1–C4)
[2] = biological target: Fis (Escherichia coli, UniProt P0A6R3 1-98); assay: EMSA; C1 at 100-200 nM Fis, C2 at >=360 nM; EMSA: 20 mM HEPES-KOH pH 7.6, 80 mM KCl, 1 mM EDTA, 4 mM DTT, 5 mM Mg acetate, 0.1 mg/ml BSA, 10% glycerol, 3 uM ATP or ADP, lambda-DNA competitor, 35 nM DNA, 30 C 5 min; pull-down in same buffer with 400 nM FBS1 competitor, preincubations on ice; conditions: protein: recombinant; chain copies: 2; blunt
[3] = biological target: DnaA;Fis (Escherichia coli;Escherichia coli, UniProt P03004;P0A6R3 1-467;1-98, |); assay: EMSA; ADP; DnaA and Fis bind independently; EMSA: 20 mM HEPES-KOH pH 7.6, 80 mM KCl, 1 mM EDTA, 4 mM DTT, 5 mM Mg acetate, 0.1 mg/ml BSA, 10% glycerol, 3 uM ATP or ADP, lambda-DNA competitor, 35 nM DNA, 30 C 5 min; pull-down in same buffer with 400 nM FBS1 competitor, preincubations on ice; conditions: protein: recombinant;recombinant; tags: ;; copies: 1;2; blunt
[4] = biological target: T1, DnaA (Escherichia coli, UniProt P03004 1-467); assay: EMSA; ATP; oligomers, trimer C3 a major form at >=480 nM DnaA; EMSA: 20 mM HEPES-KOH pH 7.6, 80 mM KCl, 1 mM EDTA, 4 mM DTT, 5 mM Mg acetate, 0.1 mg/ml BSA, 10% glycerol, 3 uM ATP or ADP, lambda-DNA competitor, 35 nM DNA, 30 C 5 min; pull-down in same buffer with 400 nM FBS1 competitor, preincubations on ice; conditions: protein: recombinant; blunt
T1 sequence: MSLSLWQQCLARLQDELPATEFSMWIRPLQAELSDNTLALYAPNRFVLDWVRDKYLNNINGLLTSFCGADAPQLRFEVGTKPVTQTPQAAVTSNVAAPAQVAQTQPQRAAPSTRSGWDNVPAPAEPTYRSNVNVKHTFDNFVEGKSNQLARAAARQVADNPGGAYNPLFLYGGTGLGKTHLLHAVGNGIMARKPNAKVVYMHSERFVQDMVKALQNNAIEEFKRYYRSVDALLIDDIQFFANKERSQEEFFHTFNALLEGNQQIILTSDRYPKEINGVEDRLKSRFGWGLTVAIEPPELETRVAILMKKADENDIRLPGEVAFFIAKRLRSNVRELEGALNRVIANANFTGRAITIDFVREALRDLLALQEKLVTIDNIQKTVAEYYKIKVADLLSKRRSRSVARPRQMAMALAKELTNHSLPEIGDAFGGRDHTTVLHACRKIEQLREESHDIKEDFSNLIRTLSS

[5] = biological target: T1, DnaA; assay: EMSA; ATP; binding inhibited completely; EMSA: 20 mM HEPES-KOH pH 7.6, 80 mM KCl, 1 mM EDTA, 4 mM DTT, 5 mM Mg acetate, 0.1 mg/ml BSA, 10% glycerol, 3 uM ATP or ADP, lambda-DNA competitor, 35 nM DNA, 30 C 5 min; pull-down in same buffer with 400 nM FBS1 competitor, preincubations on ice; conditions: protein: recombinant; blunt
[6] = biological target: T1, DnaA; assay: EMSA; ATP; trimer formation not considerably inhibited; EMSA: 20 mM HEPES-KOH pH 7.6, 80 mM KCl, 1 mM EDTA, 4 mM DTT, 5 mM Mg acetate, 0.1 mg/ml BSA, 10% glycerol, 3 uM ATP or ADP, lambda-DNA competitor, 35 nM DNA, 30 C 5 min; pull-down in same buffer with 400 nM FBS1 competitor, preincubations on ice; conditions: protein: recombinant; blunt
[7] = biological target: T1, DnaA; assay: EMSA; ADP; monomer to trimer complexes at suboptimal DnaA; EMSA: 20 mM HEPES-KOH pH 7.6, 80 mM KCl, 1 mM EDTA, 4 mM DTT, 5 mM Mg acetate, 0.1 mg/ml BSA, 10% glycerol, 3 uM ATP or ADP, lambda-DNA competitor, 35 nM DNA, 30 C 5 min; pull-down in same buffer with 400 nM FBS1 competitor, preincubations on ice; conditions: protein: recombinant; blunt

Chain of Fis (P0A6R3 whole entry): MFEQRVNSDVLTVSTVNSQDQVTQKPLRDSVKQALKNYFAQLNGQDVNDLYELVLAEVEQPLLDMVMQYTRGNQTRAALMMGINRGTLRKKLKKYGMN
Chain of DnaA;Fis (P0A6R3 whole entry, one chain of several): as the sequence (P0A6R3 whole entry) above

B1: DnaA (replication initiator protein of Escherichia coli) (natural protein, UniProt P03004 1-467, looked up)
chain: MSLSLWQQCLARLQDELPATEFSMWIRPLQAELSDNTLALYAPNRFVLDWVRDKYLNNINGLLTSFCGADAPQLRFEVGTKPVTQTPQAAVTSNVAAPAQVAQTQPQRAAPSTRSGWDNVPAPAEPTYRSNVNVKHTFDNFVEGKSNQLARAAARQVADNPGGAYNPLFLYGGTGLGKTHLLHAVGNGIMARKPNAKVVYMHSERFVQDMVKALQNNAIEEFKRYYRSVDALLIDDIQFFANKERSQEEFFHTFNALLEGNQQIILTSDRYPKEINGVEDRLKSRFGWGLTVAIEPPELETRVAILMKKADENDIRLPGEVAFFIAKRLRSNVRELEGALNRVIANANFTGRAITIDFVREALRDLLALQEKLVTIDNIQKTVAEYYKIKVADLLSKRRSRSVARPRQMAMALAKELTNHSLPEIGDAFGGRDHTTVLHACRKIEQLREESHDIKEDFSNLIRTLSS
notes: DnaA, chromosomal replication initiator protein, Escherichia coli; four domains, Arg finger Arg285 in domain III; Preincubated with 3 uM ATP (ATP–DnaA) or ADP (ADP–DnaA) before the EMSA; The nucleotide state is told by the assay, not by a separate molecule; also called ATP–DnaA; ADP–DnaA; source: purified protein
[1]
  stoichiometry N: 3 and 4

B2: FBS2-5 WT (dsDNA)
DNA 1: GGGTTGGCGAAAGATCAACCAATGCCGTATTTATCCACAGAATGTGCCACTA
DNA 2: TAGTGGCACATTCTGTGGATAAATACGGCATTGGTTGATCTTTCGCCAACCC
[2]
  binding result: binds
[3]
  binding result: binds
[4]
  binding result: binds

B3: FBS2-5 subDnaA box V (dsDNA)
DNA 1: GGGTTGGCGAAAGATCAACCAATGCCGTATACAGGCACTGAATGTGCCACTA
DNA 2: TAGTGGCACATTCAGTGCCTGTATACGGCATTGGTTGATCTTTCGCCAACCC
[5]
  binding result: no binding

B4: FBS2-5 subDnaA box V-c (dsDNA)
DNA 1: GGGTTGGCGGGGGGCCGACCAATGCCGTATTTATCCACAGAATGTGCCACTA
DNA 2: TAGTGGCACATTCTGTGGATAAATACGGCATTGGTCGGCCCCCCGCCAACCC
[6]
  binding result: binds

B5: oriC R5MI2 R14 (dsDNA)
DNA 1: TCATTACCTGTGGATAACCTGTGGATAACCTGTGGATAACCTGTGGATAAAATGA
DNA 2: TCATTTTATCCACAGGTTATCCACAGGTTATCCACAGGTTATCCACAGGTAATGA
[7]
  binding result: binds
